The results in this text go back to paper PMC7933982 (The Journal of Cell Biology, 2021).

This assay concerns the target T1, GST-CBD (S. cerevisiae, UniProt P19524 1152-1574).
T1 sequence (looked up): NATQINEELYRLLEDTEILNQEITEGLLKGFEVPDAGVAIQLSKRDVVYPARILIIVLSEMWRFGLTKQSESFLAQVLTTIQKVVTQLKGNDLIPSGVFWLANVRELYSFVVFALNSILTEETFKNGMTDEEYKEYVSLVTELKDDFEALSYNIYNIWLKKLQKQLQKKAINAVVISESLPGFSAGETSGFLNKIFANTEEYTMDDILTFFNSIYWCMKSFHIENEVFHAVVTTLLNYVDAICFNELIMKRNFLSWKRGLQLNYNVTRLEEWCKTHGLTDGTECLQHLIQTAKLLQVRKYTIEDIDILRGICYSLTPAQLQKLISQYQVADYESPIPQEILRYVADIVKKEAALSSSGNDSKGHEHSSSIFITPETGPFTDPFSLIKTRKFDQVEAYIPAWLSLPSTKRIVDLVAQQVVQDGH
Put plainly: pull-down.

B1: 6xHis-Pea2_(221–350) (domain or fragment, S. cerevisiae, UniProt P40091 221-350, looked up)
chain: EKNTSSPPISPNAAAIQEEDSSKKLEELETAFSDLQLAHNFLTKQFENDRAEYVQDIEKLTRTNRELQDKLLNNHSNLSKTEKKLHELEQENKELEKANNKLNSSRHNFGMSSPASSPVTWDPSSPSSVG
With B1, the binding result is listed as “binds”.
